# B1: uncarboxylated osteocalcin: Recombinant osteocalcin bacterially produced, cleaved from the GST subunit; completely undercarboxylated at all three sites (protein, listed as Homo sapiens)
# chain: MRALTLLALLALAALCIAGQAGAKPSGAESSKGAAFVSKQEGSEVVKRPRRYLYQWLGAPVPYPDPLEPRREVCELNPDCDELADHIGFQEAYRRFYGPV
# modifications: uncarboxylated
# notes: Recombinant osteocalcin bacterially produced, cleaved from the GST subunit; completely undercarboxylated at all three sites
# Key:
# [1] = Ex vivo dual perfusion of the mouse placenta (maternal-fetal transport); assay type: in vitro ADME; conditions: 300 ng/ml through the uterine artery
# Procedure: FIG. 6. Maternal osteocalcin favors fetal neurogenesis. (A) Expression of osteocalcin (qPCR) in bone, brain, and placenta of WT and Ocn^−/− newborns (postnatal day [P] 0) and embryos (E13.5-E18.5). (B) Osteocalcin circulating levels in WT or Ocn^−/− newborns (P0) and embryos (E13.5-E18.5). (C) Ex vivo dual-perfusion system that monitors the transport of osteocalcin across the placenta. Uncarboxylated mouse osteocalcin (300 ng/ml) was injected through the uterine artery in placentas obtained from WT mice at E14.5, E15.5, and E18.5 of pregnancy. Osteocalcin in fetal eluates is represented as % of maternal input. (D) Circulating levels of osteocalcin in WT embryos originating from WT or Ocn^+/− mothers, of Ocn^+/− embryos originating from Ocn^+/− Ocn^−/− mothers, and of Ocn^−/− embryos originating from Ocn^+/− or Ocn^−/− mothers. Measurements were performed at E16.5 and E18.5. […]
# Maternal-fetal transport of osteocalcin was monitored using ex vivo dual perfusion of the mouse placenta (Goeden & Bonnin, 2013, Nature Protocols 8:66-74). […] Osteocalcin transport through the placenta was analyzed by measuring the concentration of osteocalcin present in fetal eluates obtained through the umbilical vein, each time point (1-9) corresponding to a 10 minute collection period (at 5 μl/min). […]
# WT mice = experiment: ICV infusion in adult WT mice, D/LT and EPMT tests; assay type: in vivo, mouse; conditions: ICV 3 or 10 ng/hour for one month
# Procedure: FIG. 8. Osteocalcin improves cognitive function in adult wild-type (WT) mice. Results from dark and light (DLT) and elevated plus maze tests (EPMT) performed in 3-month old WT mice infused ICV with vehicle (PBS) or Ocn (3, 10, 30 ng/hour) are shown. (A) DLT measuring the latency to enter, the number of entries, and the time spend in lit compartment. (B) EPMT measuring the number of entries into open arms and the time spend in lit compartments.
# Each mouse was allowed to explore the apparatus for 5 min. Global activity was assessed by measuring the number of entries […] (David et al, 2009, Neuron 62:479-493). Anxiety was assessed by comparing the time spent in the open arms.
# The test was performed in a quiet, darkened room. Mice were individually housed in cages containing a handful of bedding from their home cage and acclimated to the room at least 1 h before the test. Naïve mice were placed individually in the testing chamber in the dark compartment. The test was 5 min in duration, and time spent and number of entries in light compartments were recorded a highly trained observer, blind to the genotype of the mice. […]
# [2] = Acute stereotactic injection into the hippocampus, pCREB and PKA immunofluorescence; assay type: in vivo, mouse; conditions: 10 ng into hippocampus, 16 h post injection
# Procedure: (§1) FIG. 10. Osteocalcin administration results in CREB phosphorylation. (A) p-CREB immunofluorescence (IF) in the dentate gyms (DG) of WT and Ocn−/− hippocampal region. (B) p-CREB IF in WT brain sections following a dual stereotactic injection of vehicle (PBS) (on the left) or Ocn (10 ng) (on the right) in the hippocampus. The arrows point toward the DG. (C) PKA IF in WT brain sections following a dual stereotactic injection of vehicle (PBS) (on the right) or Ocn (10 ng) (on the left) in the hippocampus.
# (§2) The resulting effects on animal behavior of direct recombinant uncarboxylated osteocalcin delivery raise the question of the molecular mechanism of action of osteocalcin in the brain. Given that osteocalcin acts through a G-protein coupled receptor pathway in other tissues, e.g., pancreas and testis, the phosphorylated CREB levels in the hippocampi of Ocn−/− and WT animals was checked. […] The hippocampus is essential for optimal spatial learning and memory in rodents. It was then asked whether the acute stereotactic injection of 10 ng of recombinant uncarboxylated osteocalcin directly into the hippocampus of WT animals would affect pCREB levels. At 16 h post injection, pCREB staining was increased in the hemisphere injected with osteocalcin versus the one injected with PBS in the same animal (FIG. 10B).
# [3] = test system: CREB phosphorylation in the hippocampus; experiment: as above; assay type: in vivo, mouse; conditions: 10 ng into hippocampus of WT animals, 16 h post injection
# Procedure: as §1, §2
molecule,measurement,setting,value
B1,"transport across the placenta, onset",[1]; WT placentas,begins to cross the placenta at day 14.5 of gestation
same,transplacental transfer to the fetal circulation at day 15.5 or 18.5 of gestation,[1]; compared with day 14.5,larger transplacental transfer
same,exploration of the lit compartment and open arms in D/LT and EPM tests,WT mice; WT mice,increase in the exploration
same,anxiety-like behavior (D/LT and EPMT),WT mice; WT mice implanted at 2 months,decrease in anxiety-like behavior
same,PKA staining in the injected hemisphere,[2],widespread and dramatic increase
same,pCREB staining in injected hemisphere versus PBS hemisphere,[3],increased

# — US10052364B2, “Osteocalcin as a treatment for cognitive disorders” (THE TRUSTEES OF COLUMBIA UNIVERSITY IN THE CITY OF NEW YORK, priority 2013, dated 2018)
